Source: patent US20210388087A1 (Chugai, published 2021)
Changes are numbered by the printed parent chain. Numbers in names are those of the source.

T1: Human CD3eg linker (human)
T1 construct: Single-chain construct; also called recombinant human CD3
T1 chain: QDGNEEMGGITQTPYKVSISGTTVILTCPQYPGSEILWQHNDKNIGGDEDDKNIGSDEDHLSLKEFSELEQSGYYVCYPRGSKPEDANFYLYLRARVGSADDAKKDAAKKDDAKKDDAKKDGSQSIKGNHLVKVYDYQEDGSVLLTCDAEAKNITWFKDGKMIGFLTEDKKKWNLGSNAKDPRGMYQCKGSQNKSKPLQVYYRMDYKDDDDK

B1: H183/L072 VL L33S (antibody, name in Kabat numbering, V domains shown)
VH: QVQLVESGGGLVQPGRSLRLSCAASGFTFSNAWMHWVRQAPGKGLEWVAQIKDKGNAYAAYYAPSVKGRFTISRDDSKNSIYLQMNSLKTEDTAVYYCHYVHYASASTVLPAFGVDAWGQGTTVTVSS
VL: DIVMTQSPLSLPVTPGEPASISCQASQELVHMNRNTYSHWYQQKPGQAPRLLIYKVSNRFPGVPDRFSGSGSGTDFTLKISRVEAEDVGVYYCAQGTSVPFTFGQGTKLEIK
B2: H183/L072 VL N30L (antibody, name in Kabat numbering, V domains shown)
VH: B1 VH
VL: B1 VL with N35L, S38L
B3: H183/L072 VL M27eN (antibody, name in Kabat numbering, V domains shown)
VH: B1 VH
VL: B1 VL with M32N, S38L
B4: H183/L072 VL M27eG (antibody, name in Kabat numbering, V domains shown)
VH: B1 VH
VL: B1 VL with M32G, S38L
B5: H183/L072 VL M27eW (antibody, name in Kabat numbering, V domains shown)
VH: B1 VH
VL: B1 VL with M32W, S38L
B6: H183/L072 VL N30K (antibody, name in Kabat numbering, V domains shown)
VH: B1 VH
VL: B1 VL with N35K, S38L
B7: H183/L072 VL M27eA (antibody, name in Kabat numbering, V domains shown)
VH: B1 VH
VL: B1 VL with M32A, S38L
B8: H183/L072 VL N30M (antibody, name in Kabat numbering, V domains shown)
VH: B1 VH
VL: B1 VL with N35M, S38L
B9: H183/L072 VL N28D (antibody, name in Kabat numbering, V domains shown)
VH: B1 VH
VL: B1 VL with N33D, S38L
B10: H183/L072 VL N30H (antibody, name in Kabat numbering, V domains shown)
VH: B1 VH
VL: B1 VL with N35H, S38L
B11: H183/L072 VL M27eR (antibody, name in Kabat numbering, V domains shown)
VH: B1 VH
VL: B1 VL with M32R, S38L
B12: H183/L072 VL N30I (antibody, name in Kabat numbering, V domains shown)
VH: B1 VH
VL: B1 VL with N35I, S38L
B13: H183/L072 VL M27eP (antibody, name in Kabat numbering, V domains shown)
VH: B1 VH
VL: B1 VL with M32P, S38L
B14: H183/L072 VL M27eF (antibody, name in Kabat numbering, V domains shown)
VH: B1 VH
VL: B1 VL with M32F, S38L
B15: H183/L072 VL N28H (antibody, name in Kabat numbering, V domains shown)
VH: B1 VH
VL: B1 VL with N33H, S38L
B16: H183/L072 VL N28K (antibody, name in Kabat numbering, V domains shown)
VH: B1 VH
VL: B1 VL with N33K, S38L
B17: H183/L072 VL N30D (antibody, name in Kabat numbering, V domains shown)
VH: B1 VH
VL: B1 VL with N35D, S38L
B18: H183/L072 VL M27eY (antibody, name in Kabat numbering, V domains shown)
VH: B1 VH
VL: B1 VL with M32Y, S38L
B19: H183/L072 VL L33T (antibody, name in Kabat numbering, V domains shown)
VH: B1 VH
VL: B1 VL with S38T
B20: H183/L072 VL M27eS (antibody, name in Kabat numbering, V domains shown)
VH: B1 VH
VL: B1 VL with M32S, S38L
B21: H183/L072 VL M27eL (antibody, name in Kabat numbering, V domains shown)
VH: B1 VH
VL: B1 VL with M32L, S38L
B22: H183/L072 VL M27eD (antibody, name in Kabat numbering, V domains shown)
VH: B1 VH
VL: B1 VL with M32D, S38L
B23: H183/L072 VL N28E (antibody, name in Kabat numbering, V domains shown)
VH: B1 VH
VL: B1 VL with N33E, S38L
B24: H183/L072 VL N28G (antibody, name in Kabat numbering, V domains shown)
VH: B1 VH
VL: B1 VL with N33G, S38L
B25: H183/L072 VL N28T (antibody, name in Kabat numbering, V domains shown)
VH: B1 VH
VL: B1 VL with N33T, S38L
B26: H183/L072 VL M27eI (antibody, name in Kabat numbering, V domains shown)
VH: B1 VH
VL: B1 VL with M32I, S38L
B27: H183/L072 VL N28S (antibody, name in Kabat numbering, V domains shown)
VH: B1 VH
VL: B1 VL with N33S, S38L
B28: H183/L072 VL N30E (antibody, name in Kabat numbering, V domains shown)
VH: B1 VH
VL: B1 VL with N35E, S38L
B29: H183/L072 VL L33V (antibody, name in Kabat numbering, V domains shown)
VH: B1 VH
VL: B1 VL with S38V
B30: H183/L072 VL M27eH (antibody, name in Kabat numbering, V domains shown)
VH: B1 VH
VL: B1 VL with M32H, S38L
B31: H183/L072 VL N30R (antibody, name in Kabat numbering, V domains shown)
VH: B1 VH
VL: B1 VL with N35R, S38L
B32: H183/L072 VL M27eQ (antibody, name in Kabat numbering, V domains shown)
VH: B1 VH
VL: B1 VL with M32Q, S38L
B33: H183/L072 VL N30F (antibody, name in Kabat numbering, V domains shown)
VH: B1 VH
VL: B1 VL with N35F, S38L
B34: H183/L072 VL M27eV (antibody, name in Kabat numbering, V domains shown)
VH: B1 VH
VL: B1 VL with M32V, S38L
B35: H183/L072 VL M27eT (antibody, name in Kabat numbering, V domains shown)
VH: B1 VH
VL: B1 VL with M32T, S38L
B36: H183/L072 VL N30Q (antibody, name in Kabat numbering, V domains shown)
VH: B1 VH
VL: B1 VL with N35Q, S38L
B37: H183/L072 VL N30A (antibody, name in Kabat numbering, V domains shown)
VH: B1 VH
VL: B1 VL with N35A, S38L
B38: H183/L072 VL M27eK (antibody, name in Kabat numbering, V domains shown)
VH: B1 VH
VL: B1 VL with M32K, S38L
B39: H183/L072 VL M27eE (antibody, name in Kabat numbering, V domains shown)
VH: B1 VH
VL: B1 VL with M32E, S38L
B40: H183/L072 VL N28A (antibody, name in Kabat numbering, V domains shown)
VH: B1 VH
VL: B1 VL with N33A, S38L
B41: H183/L072 VL N30G (antibody, name in Kabat numbering, V domains shown)
VH: B1 VH
VL: B1 VL with N35G, S38L
B42: H183/L072 VL N28Q (antibody, name in Kabat numbering, V domains shown)
VH: B1 VH
VL: B1 VL with N33Q, S38L

Target: T1, Human CD3eg linker
Assay: SPR; fold vs parent H183/L072

First: B1
Second: B2
The “fold change of affinity” value of the first is lower: 0 fold for the first, 0.5 fold for the second.

B3 and B4 are the same in “fold change of affinity” value: 0.9 fold for the first, 0.9 fold for the second.

First: B5
Second: B6
The “fold change of affinity” value of the first is lower: 1 fold for the first, 1.3 fold for the second.

Compared with B7, B8 is higher in “fold change of affinity” value: 1.3 fold for the first, 1.6 fold for the second.

First: B9
Second: B10
The “fold change of affinity” value of the first is lower: 0 fold for the first, 0.8 fold for the second.

Going from B11 to B12, the “fold change of affinity” value falls from 1.4 fold to 0.5 fold.

First: B13
Second: B14
The “fold change of affinity” value of the first is higher: 1.2 fold for the first, 0.9 fold for the second.

B15 and B16 are the same in “fold change of affinity” value: 0 fold for the first, 0 fold for the second.

First: B17
Second: B18
The “fold change of affinity” value of the first is lower: 0.1 fold for the first, 0.9 fold for the second.

Going from B19 to B20, the “fold change of affinity” value rises from 0.3 fold to 1.2 fold.

First: B21
Second: B22
The “fold change of affinity” value of the first is higher: 1 fold for the first, 0.8 fold for the second.

B23 and B24 are the same in “fold change of affinity” value: 0 fold for the first, 0 fold for the second.

First: B25
Second: B26
The “fold change of affinity” value of the first is lower: 0 fold for the first, 0.9 fold for the second.

Compared with B27, B28 is higher in “fold change of affinity” value: 0 fold for the first, 0.3 fold for the second.

Going from B29 to B30, the “fold change of affinity” value rises from 0.4 fold to 0.9 fold.

Compared with B31, B32 is lower in “fold change of affinity” value: 1.5 fold for the first, 1.1 fold for the second.

Going from B33 to B34, the “fold change of affinity” value falls from 0.9 fold to 0.8 fold.

B35 and B36 are the same in “fold change of affinity” value: 1.2 fold for the first, 1.2 fold for the second.

Going from B37 to B38, the “fold change of affinity” value rises from 0.3 fold to 1.4 fold.

Compared with B39, B40 is lower in “fold change of affinity” value: 1 fold for the first, 0 fold for the second.

B41 and B42 are the same in “fold change of affinity” value: 0 fold for the first, 0 fold for the second.
